How the values were obtained:
[1] = target: T1, c-erbB-2 extracellular domain (ECD) with His6 peptide, attached to agarose beads (UniProt P04626 23-652, limits assumed); test: affinity chromatography on c-erbB-2 ECD-agarose, eluted with 5M LiCl
T1 construct: extracellular domain; Expressed in CHO cells, purified by IMAC, coupled to agarose beads
Method: The (sFv')_2 heterodimers can be separated by a two step affinity chromatography procedure taking advantage of the bivalent nature of the dimer. For instance, during the purification of the 741F8/26-10 heterodimer the mixture initially was loaded onto an ouabain-Sepharose column, washed with a PBS, 1 M NaCl buffer, to remove any non-specifically adsorbed material, and rewashed with PBS to reduce the salt concentration. The reactive 26-10 sFv' species bound to the resin were eluted with 20 mM ouabain in PBS and the eluate dialyzed against PBS to remove the cardiac glycoside. The 741F8/26-10 heterodimers were then repurified on a c-erbB-2-agarose affinity column taking advantage of the ECD binding site in the heterodimer. […] Prior to use, the buffer was exchanged with PBS by dialysis.

[2] = target: T2, c-erbB-2 (extract of SK-Br-3 breast cancer cells coated on the plate) (UniProt P04626 23-1255); test: competition ELISA, SK-Br-3 extract on plate, 520C9-HRP probe as competitor
T2 construct: Crude detergent extract of the cells, not purified protein; also called c-erbB-2 antigen
Method: In order to prepare c-erbB-2, SK-Br-3 breast cancer cells (Ring et al., 1989, Cancer Res. 49: 3070–3080), were harvested and resuspended in 10 mM NaCl, 0.5% Nonidet-P40, pH 8. Insoluble debris was removed by centrifugation and the extract filtered through 0.45 Millex HA and 0.2 Millex GV filters. 40µl of the extract was added to each well of a 96 well plate and incubated overnight at 37° C. The plates then were washed with PBS and non-specific binding sites blocked following the addition of PBS containing 1% skim milk by incubation for one hour at room temperature. The sFv and 520C9 Fab samples, diluted in PBS, were added to the wells and incubated for 30 mins at room temperature. A control containing only dilution buffer was also included.
In order to quantitate the reaction, 20µl of a 520C9-horseradish peroxidase (HRP) probe (Zymed Labs., South San Francisco, Calif.), diluted to 14 µl/ml in PBS containing 1% skim milk, was added to each well and incubated for one hour at room temperature. The plate was then washed four times with PBS, the peroxidase substrate added and incubated for 30 minutes at room temperature. The reaction was quenched with H_2SO_4 and the […] values measured.

[3] = target: T1, c-erbB-2 extracellular domain (ECD) …; test: affinity chromatography on c-erbB-2 ECD-agarose
Excerpt: The refolded 26-10 sFv' polypeptide chains were purified by ouabain-Sepharose affinity chromatography, as described for the 26-10 sFv constructs (Huston, et. al., 1988, *Proc. Natl Acad. Sci. USA* 85; 5879–5883 and Tai, et al., 1990, *Biochem.* 29, 8024–[…], both of which are hereby incorporated by reference). The refolded 520C9 sFv polypeptide chain was similarly purified using a c-erbB-2-agarose affinity column. […] The buffer was then exchanged by dialysis. The c-erbB-2 affinity column preferably was prepared by linking the extracellular domain of c-erbB-2 onto agarose beads.

B1: 741F8/26-10 (sFv')2 heterodimer (bispecific antibody)
scFv 1: MAEIQLVQSGPELKKPGETVKISCKASGYTFTNYGMNWVKQAPGKGLKWMGWINTNTGEPTYAEEFKGRFAFSLETSASTAYLQINNLKNEDTATYFCGRQFITYGGFANWGQGTLVTVSASSSSGSSSSGSSSSDIVMTQSPKFMSTSVGDRVSISCKASQDVSTAVAWYQQKPGQSPKLLIYWTSTRHTGVPDRFTGSGSGTDYTLTISSVQAEDLALHYCQQHYRVPYTFGGGTKLEIKRADGGGGC
scFv 2: MEVQLQQSGPELVKPGASVRMSCKSSGYIFTDFYMNWVRQSHGKSLDYIGYISPYSGVTGYNQKFKGKATLTVDKSSSTAYMELRSLTSEDSAVYYCAGSSGNKWAMDYWGHGASVTVSSSGSSSSGSSSSGSDVVMTQTPLSLPVSLGDQASISCRSSQSLVHSNGNTYLNWYLQKAGQSPKLLIYKVSNRFSGVPDRFSGSGSGTDFTLKISRVEAEDLGIYFCSQTTHVPPTFGGGTKLEIKRSGGGGC
modifications: C-terminal cysteine of the (Gly)4-Cys tail disulfide linked to the other chain
notes: Made by reacting 26-10 sFv'-TNB with reduced 741F8 sFv'; also called 741F8/26-10 heterodimer
B1: binds [1].

B2: Fab fragment of the 520C9 monoclonal antibody (Fab, V domains shown)
VH: EIQLVQSGPELKKPGETVKISCKASGYTFANYGMNWMKQAPGKGLKWMGWINTYTGQSTYADDFKERFAFSLETSATTAHLQINNLRNEDSATYFCARRFGFAYWGQGTLVSVSA
VL: DIQMTQSPSSLSASLGERVSLTCRASQDIGNSLTWLQQEPDGTIKRLIYATSSLDSGVPKRFSGSRSGSDYSLTISSLESEDFVVYYCLQYAIFPYTFGGGTNLEIK
notes: Fab of the parental murine monoclonal antibody 520C9; The limits of VH (1-115) are derived from the printed linker position; also called 520C9 Fab; parental 520C9 Fab fragment
B2: binds [2].

B3: 520C9 sFv single-chain binding protein (scFv)
scFv: EIQLVQSGPELKKPGETVKISCKASGYTFANYGMNWMKQAPGKGLKWMGWINTYTGQSTYADDFKERFAFSLETSATTAHLQINNLRNEDSATYFCARRFGFAYWGQGTLVSVSASISSSSGSSSSGSSSSGSDIQMTQSPSSLSASLGERVSLTCRASQDIGNSLTWLQQEPDGTIKRLIYATSSLDSGVPKRFSGSRSGSDYSLTISSLESEDFVVYYCLQYAIFPYTFGGGTNLEIKRAD
notes: also called biosynthetic 520C9 sFv
B3: binds [3]; binds [2].

Source: patent US7138497 (CHIRON, dated 2006)
